Results: paper doi:10.1101/2024.01.09.574565, “Human coronavirus HKU1 recognition of the TMPRSS2 host receptor” (bioRxiv, 2024)

How the values were obtained:
[1] = target: HKU1 isolate N1 (genotype A) RBD, wildtype, avi-tagged and biotinylated (UniProt Q5MQD0); assay: BLI; conditions: read off a plot; for response: parent: est. 0.51
[2] = target: human TMPRSS2 ectodomain harboring the S441A residue substitution and the C379-T447C disulfide bond (UniProt O15393); assay: BLI; conditions: parent: est. 0.54; read off a plot
[3] = target: human TMPRSS2 ectodomain, active (S441), with the C379-T447C disulfide bond (human, UniProt O15393 106-492, T447C); assay: enzyme inhibition kinetics (fluorogenic peptide substrate); 5 nM TMPRSS2 with serial dilutions of Boc-QAR-AMC in the presence of 215, 72 or 24 nM HKU1 RBD, 2 min preincubation, 22 °C; fit of competitive inhibition; conditions: both partners purified
[4] = glycan lost

human TMPRSS2 ectodomain, active (S441), with the C379-T447C disulfide bond (from UniProt O15393) R470A
response [1]: 0.15 nm

HKU1 isolate N1 (genotype A) RBD, wildtype, avi-tagged and biotinylated (from UniProt Q5MQD0) H488A
response [2]: 0.17 nm

human TMPRSS2 ectodomain, active (S441), with the C379-T447C disulfide bond (from UniProt O15393) V415I
percent of parent [1]: 47 % WT

human TMPRSS2 ectodomain, active (S441), with the C379-T447C disulfide bond (from UniProt O15393) L419M
percent of parent [1]: 30 % WT

human TMPRSS2 ectodomain, active (S441), with the C379-T447C disulfide bond (from UniProt O15393) Y469N
percent of parent [1]: 5.7 % WT

HKU1 isolate N1 (genotype A) RBD, wildtype, avi-tagged and biotinylated (from UniProt Q5MQD0) E505A
response [2]: 0.37 nm

human TMPRSS2 ectodomain, active (S441), with the C379-T447C disulfide bond (from UniProt O15393) T341S
percent of parent [1]: 61 % WT

human TMPRSS2 ectodomain, active (S441), with the C379-T447C disulfide bond (from UniProt O15393) Y414S
percent of parent [1]: 14 % WT

human TMPRSS2 ectodomain, active (S441), with the C379-T447C disulfide bond (from UniProt O15393) R470K
percent of parent [1]: 2.1 % WT

human TMPRSS2 ectodomain, active (S441), with the C379-T447C disulfide bond (from UniProt O15393) S463F
percent of parent [1]: 2.3 % WT

human TMPRSS2 ectodomain, active (S441), with the C379-T447C disulfide bond (from UniProt O15393) K340D
percent of parent [1]: 38 % WT

human TMPRSS2 ectodomain, active (S441), with the C379-T447C disulfide bond (from UniProt O15393) R409K
percent of parent [1]: 36 % WT

human TMPRSS2 ectodomain, active (S441), with the C379-T447C disulfide bond (from UniProt O15393) S463T
percent of parent [1]: 2.7 % WT

human TMPRSS2 ectodomain, active (S441), with the C379-T447C disulfide bond (from UniProt O15393) R413V
percent of parent [1]: 64 % WT

human TMPRSS2 ectodomain, active (S441), with the C379-T447C disulfide bond (from UniProt O15393) R413K
percent of parent [1]: 52 % WT

human TMPRSS2 ectodomain, active (S441), with the C379-T447C disulfide bond (from UniProt O15393) Y414A
response [1]: 0.11 nm

human TMPRSS2 ectodomain, active (S441), with the C379-T447C disulfide bond (from UniProt O15393) D417N
percent of parent [1]: 7.5 % WT

human TMPRSS2 ectodomain, active (S441), with the C379-T447C disulfide bond (from UniProt O15393) S463Y
percent of parent [1]: 2.3 % WT

human TMPRSS2 ectodomain, active (S441), with the C379-T447C disulfide bond (from UniProt O15393) S412N
percent of parent [1]: 77 % WT

human TMPRSS2 ectodomain, active (S441), with the C379-T447C disulfide bond (from UniProt O15393) L419A
percent of parent [1]: 2.7 % WT

HKU1 isolate N1 (genotype A) RBD, wildtype, avi-tagged and biotinylated (from UniProt Q5MQD0) Y528A
response [2]: 0.11 nm

human TMPRSS2 ectodomain, active (S441), with the C379-T447C disulfide bond (from UniProt O15393) S441A
percent of parent [1]: 95 % WT

human TMPRSS2 ectodomain, active (S441), with the C379-T447C disulfide bond (from UniProt O15393) A468P
percent of parent [1]: 57 % WT

human TMPRSS2 ectodomain, active (S441), with the C379-T447C disulfide bond (from UniProt O15393) Y469A
response [1]: 0.36 nm

human TMPRSS2 ectodomain, active (S441), with the C379-T447C disulfide bond (from UniProt O15393) Y414L
percent of parent [1]: 2.2 % WT

human TMPRSS2 ectodomain, active (S441), with the C379-T447C disulfide bond (from UniProt O15393) R409T
percent of parent [1]: 58 % WT

B1: HKU1 isolate N1 (genotype A) RBD, wildtype, without avi tag (domain or fragment)
chain: RIPDLPDCDIDKWLNNFNVPSPLNWERKIFSNCNFNLSTLLRLVHTDSFSCNNFDESKIYGSCFKSIVLDKFAIPNSRRSDLQLGSSGFLQSSNYKIDTTSSSCQLYYSLPAINVTINNYNPSSWNRRYGFNNFNLSSHSVVYSRYCFSVNNTFCPCAKPSFASSCKSHKPPSASCPIGTNYRSCESTTVLDHTDWCRCSCLPDPITAYDPRSCSQKKSLVGVGEHCAGFGVDEEKCGVLDGSYNVSCLCSTDAFLGWSYDTCVSNNRCNIFSNFILNGINSGTTCSNDLLQPNT
notes: also called HKU1 RBD; HKU1 RBD (without avi tag); not shown: His8, C-terminal, kept
Ki [3]: 38 ± 5 nM

B2: HKU1 spike (S) glycoprotein: S357A (protein)
parent chain: MLLIIFILPTTLAVIGDFNCTNFAINDLNTTVPRISEYVVDVSYGLGTYYILDRVYLNTTILFTGYFPKSGANFRDLSLKGTTYLSTLWYQKPFLSDFNNGIFSRVKNTKLYVNKTLYSEFSTIVIGSVFINNSYTIVVQPHNGVLEITACQYTMCEYPHTICKSKGSSRNESWHFDKSEPLCLFKKNFTYNVSTDWLYFHFYQERGTFYAYYADSGMPTTFLFSLYLGTLLSHYYVLPLTCNAISSNTDNETLQYWVTPLSKRQYLLKFDNRGVITNAVDCSSSFFSEIQCKTKSLLPNTGVYDLSGFTVKPVATVHRRIPDLPDCDIDKWLNNFNVPSPLNWERKIFSNCNFNLSTLLRLVHTDSFSCNNFDESKIYGSCFKSIVLDKFAIPNSRRSDLQLGSSGFLQSSNYKIDTTSSSCQLYYSLPAINVTINNYNPSSWNRRYGFNNFNLSSHSVVYSRYCFSVNNTFCPCAKPSFASSCKSHKPPSASCPIGTNYRSCESTTVLDHTDWCRCSCLPDPITAYDPRSCSQKKSLVGVGEHCAGFGVDEEKCGVLDGSYNVSCLCSTDAFLGWSYDTCVSNNRCNIFSNFILNGINSGTTCSNDLLQPNTEVFTDVCVDYDLYGITGQGIFKEVSAVYYNSWQNLLYDSNGNIIGFKDFVTNKTYNIFPCYAGRVSAAFHQNASSLALLYRNLKCSYVLNNISLTTQPYFDSYLGCVFNADNLTDYSVSSCALRMGSGFCVDYNSPSSSSSRRKRRSISASYRFVTFEPFNVSFVNDSIESVGGLYEIKIPTNFTIVGQEEFIQTNSPKVTIDCSLFVCSNYAACHDLLSEYGTFCDNINSILDEVNGLLDTTQLHVADTLMQGVTLSSNLNTNLHFDVDNINFKSLVGCLGPHCGSSSRSFFEDLLFDKVKLSDVGFVEAYNNCTGGSEIRDLLCVQSFNGIKVLPPILSESQISGYTTAATVAAMFPPWSAAAGIPFSLNVQYRINGLGVTMDVLNKNQKLIATAFNNALLSIQNGFSATNSALAKIQSVVNSNAQALNSLLQQLFNKFGAISSSLQEILSRLDALEAQVQIDRLINGRLTALNAYVSQQLSDISLVKFGAALAMEKVNECVKSQSPRINFCGNGNHILSLVQNAPYGLLFMHFSYKPISFKTVLVSPGLCISGDVGIAPKQGYFIKHNDHWMFTGSSYYYPEPISDKNVVFMNTCSVNFTKAPLVYLNHSVPKLSDFESELSHWFKNQTSIAPNLTLNLHTINATFLDLYYEMNLIQESIKSLNNSYINLKDIGTYEMYVKWPWYVWLLISFSFIIFLVLLFFICCCTGCGSACFSKCHNCCDEYGGHHDFVIKTSHDD
other: neutralisation sensitivity, other: geometric mean ID50 dilution [4]: increases
